Source: FireProtDB (doi:10.1002/prot.1147)
Values joined by “and” are separate entries in the source; they are usually repeats but may differ in a detail not shown here. Identical values can stand only once.

B1: Lysozyme C, P61626 (parent)
chain: MKALIVLGLVLLSVTVQGKVFERCELARTLKRLGMDGYRGISLANWMCLAKWESGYNTRATNYNAGDRSTDYGIFQINSRYWCNDGKTPGAVNACHLSCSALLQDNIADAVACAKRVVRDPQGIRAWVAWRNRCQNRDVRQYVQGCGV

Variants of: B1
Conditions: Homo sapiens; pH 2.6; Thermal; DSC; Gly-HCl 0.05 M; reversible: yes; structure 1LZ1; whole UniProt chain shown

Variant	Tm	unfolding enthalpy (calorimetric)
MKALIVLGLVLLSVTVQGKVFERCELARTLKRLGMDGYRGISLANWMCLAKWESGYNTRATNYNAGDRSTDYGIFQINSRYWCNDAKTPGAVNACHLSCSALLQDNIADAVACAKRVVRDPQGIRAWVAWRNRCQNRDVRQYVQGCGV [G86A]	62.8 °C	103 kcal/mol
MKALIVLGLVLLSVTVQGKVFERCELARTLKRLGMDGYRGISLANWMCLAKWESAYNTRATNYNAGDRSTDYGIFQINSRYWCNDGKTPGAVNACHLSCSALLQDNIADAVACAKRVVRDPQGIRAWVAWRNRCQNRDVRQYVQGCGV [G55A]	62.4 °C	104 kcal/mol

Same assay, conditions: Homo sapiens; pH 2.7; 64.9 °C; Thermal; DSC; Gly-HCl 0.05 M; reversible: yes; structure 1LZ1; whole UniProt chain shown

Variant	ddG of mutation (higher = less stable)	heat capacity change of unfolding
MKALIVLGLVLLSVTVQGKVFERCELARTLKRLGMDGYRGISLANWMCLAKWESGYNTRATNYNAGDRSTDYGIFQINSRYWCNDAKTPGAVNACHLSCSALLQDNIADAVACAKRVVRDPQGIRAWVAWRNRCQNRDVRQYVQGCGV [G86A]	0.12 kcal/mol	1.65 kcal/mol/K
MKALIVLGLVLLSVTVQGKVFERCELARTLKRLGMDGYRGISLANWMCLAKWESGYNTRATNYNAGDRSTDYGIFQINSRYWCNDGKTPGAVNACHLSCSALLQDNIADAVACAKRVVRDPQGIRAWVAWRNRCQNRDVRQYVQGCAV [G147A]	-0.14 kcal/mol	1.29 kcal/mol/K
MKALIVLGLVLLSVTVQGKVFERCELARTLKRLGMDAYRGISLANWMCLAKWESGYNTRATNYNAGDRSTDYGIFQINSRYWCNDGKTPGAVNACHLSCSALLQDNIADAVACAKRVVRDPQGIRAWVAWRNRCQNRDVRQYVQGCGV [G37A]	1.77 kcal/mol	1.58 kcal/mol/K
MKALIVLGLVLLSVTVQGKVFERCELARTLKRLAMDGYRGISLANWMCLAKWESGYNTRATNYNAGDRSTDYGIFQINSRYWCNDGKTPGAVNACHLSCSALLQDNIADAVACAKRVVRDPQGIRAWVAWRNRCQNRDVRQYVQGCGV [G34A]	1.39 kcal/mol	1.58 kcal/mol/K

Same assay, conditions: Homo sapiens; pH 2.7; Thermal; DSC; Gly-HCl 0.05 M; reversible: yes; structure 1LZ1; whole UniProt chain shown

Variant	Tm	change of melting temperature, mutant - wild type (higher = more stable)	heat capacity change of unfolding	unfolding enthalpy (calorimetric)
MKALIVLGLVLLSVTVQGKVFERCELARTLKRLGMDGYRGISLANWMCLAKWESGYNTRATNYNAGDRSTDYGIFQINSRYWCNDAKTPGAVNACHLSCSALLQDNIADAVACAKRVVRDPQGIRAWVAWRNRCQNRDVRQYVQGCGV [G86A]	64.5 °C	-0.4 °C	1.65 kcal/mol/K	108 kcal/mol
MKALIVLGLVLLSVTVQGKVFERCELARTLKRLGMDGYRGISLANWMCLAKWESGYNTRATNYNAGDRSTDYGIFQINSRYWCNDGKTPGAVNACHLSCSALLQDNIADAVACAKRVVRDPQGIRAWVAWRNRCQNRDVRQYVQGCAV [G147A]	65.4 °C	0.5 °C	1.29 kcal/mol/K	99.7 kcal/mol
MKALIVLGLVLLSVTVQGKVFERCELARTLKRLGMDGYRGISLANWMCLAKWESAYNTRATNYNAGDRSTDYGIFQINSRYWCNDGKTPGAVNACHLSCSALLQDNIADAVACAKRVVRDPQGIRAWVAWRNRCQNRDVRQYVQGCGV [G55A]	64 °C	-0.9 °C	1.53 kcal/mol/K	108 kcal/mol
MKALIVLGLVLLSVTVQGKVFERCELARTLKRLGMDGYRAISLANWMCLAKWESGYNTRATNYNAGDRSTDYGIFQINSRYWCNDGKTPGAVNACHLSCSALLQDNIADAVACAKRVVRDPQGIRAWVAWRNRCQNRDVRQYVQGCGV [G40A]	57.7 °C	-7.2 °C		77 kcal/mol and 88.4 kcal/mol
MKALIVLGLVLLSVTVQGKVFERCELARTLKRLGMDAYRGISLANWMCLAKWESGYNTRATNYNAGDRSTDYGIFQINSRYWCNDGKTPGAVNACHLSCSALLQDNIADAVACAKRVVRDPQGIRAWVAWRNRCQNRDVRQYVQGCGV [G37A]	59.4 °C	-5.5 °C		102 kcal/mol and 111 kcal/mol
MKALIVLGLVLLSVTVQGKVFERCELARTLKRLAMDGYRGISLANWMCLAKWESGYNTRATNYNAGDRSTDYGIFQINSRYWCNDGKTPGAVNACHLSCSALLQDNIADAVACAKRVVRDPQGIRAWVAWRNRCQNRDVRQYVQGCGV [G34A]	60.3 °C	-4.6 °C		96.3 kcal/mol and 103 kcal/mol

Same assay, conditions: Homo sapiens; pH 2.72; Thermal; DSC; Gly-HCl 0.05 M; reversible: yes; structure 1LZ1; whole UniProt chain shown

Variant	Tm	unfolding enthalpy (calorimetric)
MKALIVLGLVLLSVTVQGKVFERCELARTLKRLGMDGYRGISLANWMCLAKWESGYNTRATNYNAGDRSTDYGIFQINSRYWCNDAKTPGAVNACHLSCSALLQDNIADAVACAKRVVRDPQGIRAWVAWRNRCQNRDVRQYVQGCGV [G86A]	64.9 °C	109 kcal/mol

Same assay, conditions: Homo sapiens; pH 3; Thermal; DSC; Gly-HCl 0.05 M; reversible: yes; structure 1LZ1; whole UniProt chain shown

Variant	Tm	unfolding enthalpy (calorimetric)
MKALIVLGLVLLSVTVQGKVFERCELARTLKRLGMDGYRGISLANWMCLAKWESGYNTRATNYNAGDRSTDYGIFQINSRYWCNDAKTPGAVNACHLSCSALLQDNIADAVACAKRVVRDPQGIRAWVAWRNRCQNRDVRQYVQGCGV [G86A]	69.2 °C	114 kcal/mol

Same assay, conditions: Homo sapiens; pH 2.67; Thermal; DSC; Gly-HCl 0.05 M; reversible: yes; structure 1LZ1; whole UniProt chain shown

Variant	Tm	unfolding enthalpy (calorimetric)
MKALIVLGLVLLSVTVQGKVFERCELARTLKRLGMDGYRGISLANWMCLAKWESGYNTRATNYNAGDRSTDYGIFQINSRYWCNDGKTPGAVNACHLSCSALLQDNIADAVACAKRVVRDPQGIRAWVAWRNRCQNRDVRQYVQGCAV [G147A]	64.9 °C	99.7 kcal/mol

Same assay, conditions: Homo sapiens; pH 2.79; Thermal; DSC; Gly-HCl 0.05 M; reversible: yes; structure 1LZ1; whole UniProt chain shown

Variant	Tm	unfolding enthalpy (calorimetric)
MKALIVLGLVLLSVTVQGKVFERCELARTLKRLGMDGYRGISLANWMCLAKWESGYNTRATNYNAGDRSTDYGIFQINSRYWCNDGKTPGAVNACHLSCSALLQDNIADAVACAKRVVRDPQGIRAWVAWRNRCQNRDVRQYVQGCAV [G147A]	67.1 °C	102 kcal/mol

Same assay, conditions: Homo sapiens; pH 2.8; Thermal; DSC; Gly-HCl 0.05 M; reversible: yes; structure 1LZ1; whole UniProt chain shown

Variant	Tm	unfolding enthalpy (calorimetric)
MKALIVLGLVLLSVTVQGKVFERCELARTLKRLGMDGYRGISLANWMCLAKWESGYNTRATNYNAGDRSTDYGIFQINSRYWCNDGKTPGAVNACHLSCSALLQDNIADAVACAKRVVRDPQGIRAWVAWRNRCQNRDVRQYVQGCAV [G147A]	67.2 °C	103 kcal/mol

Same assay, conditions: Homo sapiens; pH 2.38; Thermal; DSC; Gly-HCl 0.05 M; reversible: yes; structure 1LZ1; whole UniProt chain shown

Variant	Tm	unfolding enthalpy (calorimetric)
MKALIVLGLVLLSVTVQGKVFERCELARTLKRLGMDGYRGISLANWMCLAKWESAYNTRATNYNAGDRSTDYGIFQINSRYWCNDGKTPGAVNACHLSCSALLQDNIADAVACAKRVVRDPQGIRAWVAWRNRCQNRDVRQYVQGCGV [G55A]	58.1 °C	97 kcal/mol

Same assay, conditions: Homo sapiens; pH 3.18; Thermal; DSC; Gly-HCl 0.05 M; reversible: yes; structure 1LZ1; whole UniProt chain shown

Variant	Tm	unfolding enthalpy (calorimetric)
MKALIVLGLVLLSVTVQGKVFERCELARTLKRLGMDGYRGISLANWMCLAKWESAYNTRATNYNAGDRSTDYGIFQINSRYWCNDGKTPGAVNACHLSCSALLQDNIADAVACAKRVVRDPQGIRAWVAWRNRCQNRDVRQYVQGCGV [G55A]	72.4 °C	119 kcal/mol
